Patent publication US12264201B2, “Bispecific antibody targeting IL-1R1 and NLPR3” (University of Ulster, priority 2018, dated 2025)

Biological target: NLRP3 inflammasome (Homo sapiens, UniProt Q96P20)
Experiment: In vitro assay of NLRP3 assembly (hybridoma clones)
Conditions: compared among the hybridoma clones

Sequence of NLRP3 inflammasome (Q96P20 whole entry): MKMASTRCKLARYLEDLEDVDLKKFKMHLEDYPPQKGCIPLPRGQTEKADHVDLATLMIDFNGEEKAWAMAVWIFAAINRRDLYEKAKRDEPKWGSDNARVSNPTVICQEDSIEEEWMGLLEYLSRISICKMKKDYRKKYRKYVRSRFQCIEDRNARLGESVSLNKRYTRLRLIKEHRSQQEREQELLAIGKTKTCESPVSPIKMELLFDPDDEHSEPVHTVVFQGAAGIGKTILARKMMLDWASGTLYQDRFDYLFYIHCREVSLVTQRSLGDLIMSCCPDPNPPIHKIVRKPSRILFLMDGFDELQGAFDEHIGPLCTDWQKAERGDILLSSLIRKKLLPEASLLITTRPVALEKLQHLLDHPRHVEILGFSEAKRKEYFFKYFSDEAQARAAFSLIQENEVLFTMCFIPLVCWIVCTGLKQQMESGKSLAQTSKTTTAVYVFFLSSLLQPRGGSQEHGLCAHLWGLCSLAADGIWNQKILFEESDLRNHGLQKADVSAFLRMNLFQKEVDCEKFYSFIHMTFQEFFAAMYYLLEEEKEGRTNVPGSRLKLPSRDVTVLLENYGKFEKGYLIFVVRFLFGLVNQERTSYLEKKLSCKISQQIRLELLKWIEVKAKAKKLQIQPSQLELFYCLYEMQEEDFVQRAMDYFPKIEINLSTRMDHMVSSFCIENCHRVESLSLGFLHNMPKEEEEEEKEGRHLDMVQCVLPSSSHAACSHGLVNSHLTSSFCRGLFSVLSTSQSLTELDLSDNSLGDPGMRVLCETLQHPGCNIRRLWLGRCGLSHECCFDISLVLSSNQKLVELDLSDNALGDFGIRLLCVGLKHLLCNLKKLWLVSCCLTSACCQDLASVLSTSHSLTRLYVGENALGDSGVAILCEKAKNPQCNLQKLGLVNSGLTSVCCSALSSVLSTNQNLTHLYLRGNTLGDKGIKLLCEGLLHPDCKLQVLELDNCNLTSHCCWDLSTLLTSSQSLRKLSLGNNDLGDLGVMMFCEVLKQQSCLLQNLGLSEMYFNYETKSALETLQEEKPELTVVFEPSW

preventing NLRP3 assembly: most active
B1: F226 7A7-1E1-2D5: anti-NLRP3 monoclonal antibody from hybridoma clone, sequenced and used in the bispecific; VH SEQ ID NO: 36, VL SEQ ID NO: 43 (antibody)
VH: MDFGLSWVFLVLVLKGVQCEVQLVESGGGLVKPGGSLKLSCAASGFTFSDYYMYWVRQTPEKRLEWVATISDGGTYTYYPDSVKGRFTISRDNAKNNLYLQMNSLKSEDTAMYYCARGWVSTMVKLLSSFPYWGQGTLVTVSAAKTTPPSVYPLA
VL: MAWISLLFSLLALSSGAISQAVVTQESALTTSPGETVTLTCRSSTGAVTTSNYANWVQEKPDHLFTGLIGGTNNRAPGVPARFSGSLIGDKAALTITGAQTEDEAIYFCALWYSNYWVFGGGTKLTVLGQPKSSPSVTLFPPSTEKLSL
